Assay [1] addresses the different Hsp90 proteins. Briefly: ITC; p50^Cdc37 (200 µM) titrated into Hsp90 (20 µM); 50 mM HEPES pH 7.5, 10 mM MgCl2, 30 °C. (Isothermal titration calorimetry measures the heat released or taken up as one component is titrated into another.)
The target of assay [2] is T1, human full-length p50^Cdc37 (residues 1-378) (human), Q16543.
T1 chain: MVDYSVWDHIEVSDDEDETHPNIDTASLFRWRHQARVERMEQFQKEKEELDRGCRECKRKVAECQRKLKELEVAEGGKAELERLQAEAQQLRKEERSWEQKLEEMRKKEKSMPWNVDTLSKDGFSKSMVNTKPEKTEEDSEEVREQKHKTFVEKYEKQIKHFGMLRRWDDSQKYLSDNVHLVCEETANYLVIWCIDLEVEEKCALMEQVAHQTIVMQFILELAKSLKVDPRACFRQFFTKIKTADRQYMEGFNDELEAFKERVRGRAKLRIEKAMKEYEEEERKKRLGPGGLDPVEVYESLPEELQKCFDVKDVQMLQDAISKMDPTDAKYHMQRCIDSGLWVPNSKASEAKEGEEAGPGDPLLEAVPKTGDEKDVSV
Description: SEC; analytical Superdex200 10/300 GL, room temperature, 0.3 mL/min; 85 µM protein in 50 mM HEPES pH 7.5, 50 mM KCl, 5 mM MgCl2, 1 mM DTT; fractions on SDS-PAGE. Particulars: remark: other sources report otherwise. In general terms: In gel filtration, larger molecules generally elute earlier.

B1: human full-length p50^Cdc37 (residues 1-378) (natural protein)
chain: T1 chain
Usually Kd stands for a measure of binding affinity in units of concentration. For B1, in assay [1], the Kd was 1.1 to 1.9 µM.

B2: human full-length p50^Cdc37 (residues 1-378), Q16543 1-378 (natural protein)
chain: T1 chain
A word on the stoichiometry N: it is a count of units in the complex or per binding partner. As to B2, in assay [2], the stoichiometry N is 2.

For the origin of these results see article PMC4601640, “Stability of the Human Hsp90-p50^Cdc37 Chaperone Complex against Nucleotides and Hsp90 Inhibitors, and the Influence of Phosphorylation by Casein Kinase 2” (Molecules, 2015).
